According to article PMC314469, “Protein Interaction Networks by Proteome Peptide Scanning” (PLoS Biology, 2004):

Legend:
Assay in all cases: SPOT array
[1] = target: T1, Boi1 SH3 (BOI1_YEAST), P38041
T1 chain: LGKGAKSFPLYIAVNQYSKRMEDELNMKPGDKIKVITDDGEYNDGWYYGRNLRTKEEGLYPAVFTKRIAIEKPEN

[2] = target: T2, Boi2 SH3 (BOI2_YEAST), P39969
T2 chain: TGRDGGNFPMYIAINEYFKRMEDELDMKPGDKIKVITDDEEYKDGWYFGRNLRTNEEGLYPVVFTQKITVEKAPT

[3] = target: T3, Rvs167 SH3 (RV167_YEAST), P39743
T3 chain: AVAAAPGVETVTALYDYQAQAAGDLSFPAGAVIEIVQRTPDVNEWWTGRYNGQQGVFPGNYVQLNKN

[4] = target: T4, Yfr024 SH3 (LSB3_YEAST), P43603
T4 chain: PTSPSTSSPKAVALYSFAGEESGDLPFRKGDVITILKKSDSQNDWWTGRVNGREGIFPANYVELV

[5] = target: T5, Yhr016c SH3 (YSC84_YEAST), P32793
T5 chain: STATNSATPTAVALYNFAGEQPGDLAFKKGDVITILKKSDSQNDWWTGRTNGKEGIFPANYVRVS

Binder | normalised SPOT signal, Boehringer light units (BLU); mean over the file's lines of this peptide [1] | normalised SPOT signal, Boehringer light units (BLU); mean over the file's lines of this peptide [2] | normalised SPOT signal, Boehringer light units (BLU); mean over the file's lines of this peptide [3] | normalised SPOT signal, Boehringer light units (BLU); mean over the file's lines of this peptide [4] | normalised SPOT signal, Boehringer light units (BLU); mean over the file's lines of this peptide [5]
EVIPSWPRRGKVEE [YNL022C 436-449] | 51.2 | 26 | 34.7 | 923 | 138
EVSPVEPKRTENER [YDR507C 687-700] | 80.7 | 41.7 | 47.2 | 72 | 83.5
EVTPEEPSKKIRTS [YML071C 500-513] | 52.7 | 20.1 | 15.5 | 15 | 124
EVTPEEPSKSIDNK [YML071C 475-488] | 25.1 | 0 | 19.5 | 0 | 105
EVTPKVPERPSRRK [YIR003W 4-17] | 5160 | 493 | 2090 | 59100 | 18500
EVYPIEPPKVVSLK [YLR306W 88-101] | 48.7 | 26.4 | 9 | -0 | 85.5
EYFPISPEKKEEME [YGR237C 591-604] | 120 | 15.3 | 32.5 | 0 | 242
EYHPIKPLRSSSST [YDL180W 234-247] | 56.4 | 29.9 | 48.4 | 3150 | 762
EYSPLVPSKMSADK [YBR044C 356-369] | 103 | 56.6 | 202 | 370 | 177
FSHPLSPLKSNFID [YGL177W 74-87] | 61.5 | 44.1 | 91.8 | 217 | 0
FDFPLSPVKHENPT [YBR098W 196-209] | 70.3 | 2.4 | 28.7 | 53 | 135
FENPTIPKKSYSEF [YPR045C 291-304] | 78.2 | 55.1 | 47.2 | 50.5 | 43.7
FFDPESPNKGKLIL [YPL269W 491-504] | 63.1 | 149 | 61.6 | 68 | 129
FFHPAIPLKNAAPF [YER066C-A 112-125] | 154 | 9.4 | 22.5 | 298 | 288
FFQPEYPVRMEPDL [YLR128W 194-207] | 57.9 | 76 | 0 | 1060 | 210
FGTPVAPTRTLSRK [YOR070C 179-192] | 3280 | 308 | 398 | 5160 | 269
FHDPILPRRTSTFL [YHL028W 526-539] | 9870 | 87.1 | 6840 | 44800 | 42100
FISPHLPMKGRLVL [YGR068C 471-484] | 231 | 20.4 | 68.3 | 1540 | 301
FKAPTNPRKVYSKR [YMR035W 79-92] | 80.9 | 38.8 | 33.7 | 267 | 143
FKMPKKPQRSKEEV [YOR243C 86-99] | 97.7 | 244 | 166 | 7880 | 2660
FLLPNLPMRTFKEI [YIL105C 444-457] | 218 | 66.4 | 8120 | 15300 | 8100
FLPPPKPFRHTETK [YBR108W 587-600] | 295 | 67.3 | 1190 | 36400 | 25000
